The nature of the series: yeast display, Sf9 membrane polyspecificity reagent, FACS + sequencing; frameworks hold sequencing errors. In short, it runs like this:
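In a synthetic yeast display library (Saccharomyces cerevisiae BJ5465), nanobody expression was induced with galactose for 36–48 hours. FACS gates were set low and high (top ~1%) using anti-HA fluorescence for expression and streptavidin fluorescence for binding of the Sf9 membrane reagent. Each polyreactivity label is drawn from the gate of origin.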
“QVQLVESGGGLVQAGGSLRLICAASGRTFINYAMGWSRQAPGKERELVAAITTGGRTNYADSVKGRFTISRDNAKNTVYLQMKSLKPEDTAVYYCAADRYYWGRYTLNYWGQGTQVTVSS”: the “polyreactivity (PSR sort gate)” value is reported as “low polyreactivity”.
The entry for “QVQLVESGGGLVQAGGSLRLICAASGRTFKQYAMGWSRQAPGTERELVAAITSSGGSTYYADSVKGRFTISRDNAKNTVYLQMNSLKPEDTAVYYCAAATRGSGRRYDYWGQGTQVTVSS” is “high polyreactivity”; for “QVQLVESGGGLVQAGGSLRLICAASGRTFVYYAMGWYRQAPGKERELVAAISGGGSKTYADSVKGRFTISRDNAKYTVYLLMNSLKPEDTAVYYCGKSVWRRYYYWGQGNQVTVSS” it is “high polyreactivity”; for “QVQLVESGGGLVQAGGSLRLICAASGRTFYIYTMGWYREAPGKERELVAAISSSGDSTYYADSLKGRFTISRDNAKNTVYLQMNSLKPEDTAVYYCAAYPTYPDEYWGEGTQVTVSS” it is “low polyreactivity”.
Take “QVQLVESGGGLVQAGGSLRLICAASGRTFYKYAMGWYRQAPGKEREFVADISSRGGSTYYADSVKGRFTISRDNAKNTVYLQMNSLKPEDTSVYYCAAFSDLTFWHHFSELYYWGQGTQVTVSS”: the “polyreactivity (PSR sort gate)” value is listed as “high polyreactivity”.
The value for “QVQLVESGGGLVQAGGSLRLICAASGRTSGGNGMGWYRQAPGKERELVAAITWDGDSTYADSVKGRFTISRDNAKNTDYFQMNSLKPEDTAVYYCAAGVYQSDYYYWGQGTQVTVSS” was “low polyreactivity”.
The value for “QVQLVESGGGLVQAGGSLRLICAASGRTYHGYAMGWYRQAPGKERELVAAITSSGARTYYADSVKGRFTLSRDNAKKTVYLQMNSLKPEDTAVYYCAVNWLRGMDWGQGTQVTVSS” was “high polyreactivity”.
The entry for “QVQLVESGGGLVQAGGSLRLICAASGSIFASYVMGWYRQAPGKERDLVAAITSRGTSTYYADSVKGRFTISRDNAKNTVYFQINSLKTEDTAVYYCAARLYGSAPQHEYWGKGTQVTVSS” is “low polyreactivity”; for “QVQLVESGGGLVQAGGSLRLICAASGSIFDRYAMGWYRPAPGKDRELVAAITGSGGSTYYADSVKGRFRISRDNAKNTVYLQMNSLKPEDTAVYYGNARARGAYVRYGYWGQGTQVTVSS” it is “high polyreactivity”; for “QVQLVESGGGLVQAGGSLRLICAASGSIFDRYVMGWYRQAPGKERELVAAITTSGDGTYYADSVKGRFTISRDNAKNTVYLQMNSLKPEDTAVYYCAAVRRSWKYSTSDYWGQGTQVTVSS” it is “low polyreactivity”.
“QVQLVESGGGLVQAGGSLRLICAASGSIFDTYAMGWYRQAPGKERELLATISWSGDSTYYADSVKGRFTISRDNAKNTVYLQMNCLKPEDTAVYYCAADVGQVSDHEDYDYWGQGTQVTVSS”: the “polyreactivity (PSR sort gate)” value was “low polyreactivity”.
The entry for “QVQLVESGGGLVQAGGSLRLICAASGSIFFYYAMGWYRQAPGKERELVAAITKIGVGTFYADSVKGRFTISRDNAKNTVYLQMNSLKPEDTAVYYCNARTAWEGYDYWGQGTQVTVSS” is “low polyreactivity”; for “QVQLVESGGGLVQAGGSLRLICAASGSIFPRYVMGWSRQAPGKERELVAAITRRGGSTYYADSVKGRFTISRDNAKHTVYLQMNSLKPADTAVYYCNAKYRLEMDWGQGTQVTVSS” it is “high polyreactivity”.
The value for “QVQLVESGGGLVQAGGSLRLICAASGSIFRLNTMGWYRQAPGKERELVAAIFTSGGSTYADSVKGRFTISRDNAKNTVYLQMNSLKPEDTAVYYCAGMDYWGQGTQVTVSS” was “low polyreactivity”.
In the case of “QVQLVESGGGLVQAGGSLRLICAASGSIFRNNARGWYRQAAGKERELVAVISRRSGNTYYADSVKGRFTISRDNAKNTVYLQMNSLKPEDTAVYYCAADYSKSSIRGDYWGQGTQVTVSS”, the “polyreactivity (PSR sort gate)” value is “low polyreactivity”.
For “QVQLVESGGGLVQAGGSLRLICAASGSIFRPNAMGWYRQAPGKEREFVASISGRVGSTYYADSVKGRFTISRDNAKNTVYLQMNSLKPEDTAVYYCAADFPTDKLSNFPITEYGYWGQGTQVTVSS”, the “polyreactivity (PSR sort gate)” value was “high polyreactivity”.
For “QVQLVESGGGLVQAGGSLRLICAASGSIFSENTMGWYRQAPGKERELVAAISWSGGSTKYADSVKGRFTISRDNAQITVYLQMNCLKPEDTSVYNCGTDIHDDTGAYDYWGQCTQVTVSS”, the “polyreactivity (PSR sort gate)” value was “low polyreactivity”.
The value for “QVQLVESGGGLVQAGGSLRLICAASGSIFSTYTMGWYRQAPGKERELVAAITRSGGSTYYADSVKGRFTISRDNAKNTVYLQMNSLKPEDTAVYYCAAKGKRLRSYYQRYYYWGQGTQVTVSS” was “high polyreactivity”.
The value for “QVQLVESGGGLVQAGGSLRLICAASGSIFTPYVMGWYRQAPGKEREFVAAITQRGGRTYYADSVKGRFTISRDNAKNTVYLQMNSLKPEDTAVYYCAKTSVSRTYHRSAYDYWGQGTQVTVSS” was “high polyreactivity”.
The entry for “QVQLVESGGGLVQAGGSLRLICAASGSIFTYYTMGWYRQAPGKERELVAAIRWSAGRTYYADSVKGRFTISRDNAKNSVYLQMNSLKPEDTSVYYCAAAERLRHGLKFDYWGQGTQVTVSS” is “high polyreactivity”.
Regarding “QVQLVESGGGLVQAGGSLRLICAASGSIFVGYAMGWCRQAPGKERELVAAIRSGGSTKYADSVKGRFTISRDNAKNTVYLQMNSLKPEDTAVYYCNVEVHPYYWVDNFHRFPVLHNYWGQGTQVTVSS”, the “polyreactivity (PSR sort gate)” value is reported as “low polyreactivity”.
For “QVQLVESGGGLVQAGGSLRLICAASGSIRYYAMGWYTQAPGKEREFVAAISRRGSSTNYADSVKGRFTISRDNAKNTVYLQMNSLNPEDTAVYNCAAAARAGLKRYYYWGQGTQVTVSS”, the “polyreactivity (PSR sort gate)” value was “high polyreactivity”.
As to “QVQLVESGGGLVQAGGSLRLICAASGSISYINAMGWYRQATGKERELDARIRSGDPTNYADSVKGRFTISRDNAKNTVYLQMNSLKPEDTAVYYCARRVTGTLYYTGYDYWGQGTQVTVSS”, the “polyreactivity (PSR sort gate)” value is reported as “high polyreactivity”.
The entry for “QVQLVESGGGLVQAGGSLRLICAASGSTFAYNYMGWYRQAPGKERELVPDIRSGGNTNYADSVKGRFTISRDNAKNTVYLQMNSLKPEDTAVYYCATDGYRIDVYHPDYRYDYWGQGTQVTVSS” is “low polyreactivity”; for “QVQLVESGGGLVQAGGSLRLICAASGSTFDVNAMGWYRQAPGKERELVAAISWNSGSTYYADSVKGRFTISRDNAKNTVYLQMNSLKPEDTAVYYCAATYGTGRRSKYGYWGQGTQVTVSS” it is “high polyreactivity”; for “QVQLVESGGGLVQAGGSLRLICAASGSTFFANAMGWYRPAPGKERELVAVITYSGGSTYYADSVKGRFTISRYNAKNTVYLQMNSLKPEDTAVDYCAAKSYFRPYSYSYSYWGQGTQVTVSS” it is “high polyreactivity”.
“QVQLVESGGGLVQAGGSLRLICAASGSTFGFNAMGWYRQAPGKERELVAAITFSGGTTYYADSVKGRFTISRDNAKNTVYVQMNSLKPDDTAVYYCNAEWWYHYTGPFAPWGEDYWGQGTQVTVSS”: the “polyreactivity (PSR sort gate)” value is on record as “low polyreactivity”.
As to “QVQLVESGGGLVQAGGSLRLICAASGSTFHAYAMGWYRQAPGKERDLVAAITWSGDSTYADSVKGRFTISRDKAKNTFFLQMNSLKPEETAVYDCACRGFLGHWPRPSYDYWGQGTQVTVSS”, the “polyreactivity (PSR sort gate)” value is “low polyreactivity”.
In the case of “QVQLVESGGGLVQAGGSLRLICAASGSTFKRYAMGWYRQAPGKERELVAAISTRGSTYYADSVKGRFTISRDNAKNTVYLQMNSLKPEDTAVYYCNARQALVWKWSWYSPGYDYWGQGTQVTVSS”, the “polyreactivity (PSR sort gate)” value is recorded as “low polyreactivity”.
The entry for “QVQLVESGGGLVQAGGSLRLICAASGSTFTQNAMGWYRQAPGKERELVAAISSSGTRTYYADSVKGRFTISRDNAKNTVYLQMNSLKPEDTAVYYCAATVYPSVYGENHYGYWGQGTKVTVSS” is “high polyreactivity”; for “QVQLVESGGGLVQAGGSLRLICAASGSTFWPYARGWYRQAPGNERELVAAITWSGGRTYYADSVKGRFTISRDNAKNTVYLQMNSLKPEDTAVYYCAADSYVLGRWYGYWGQGTQVTVSS” it is “low polyreactivity”; for “QVQLVESGGGLVQAGGSLRLICAASGSTLKYYAMGWSRPAPGKERELVARITRSSGSTYYADSVKGRFTISRDNAKNTVYLQMNSMKPEDTAVYYCNKVYKSYYWGGYDWGQGTQVTVSS” it is “high polyreactivity”.
Consider “QVQLVESGGGLVQAGGSLRLICAASGSTLYRNAMGWYRQARGKERELVAAISSSGGTTFYADSVKGRFTISRDNAKNTVYLQMNSLKPEDTAVYYCNRTARKLLTVHSSVVGLDYWGQGSQVTVSS”, for which the “polyreactivity (PSR sort gate)” value was “low polyreactivity”.
The entry for “QVQLVESGGGLVQAGGSLRLICAASGSTSYVYAMGWYRQAPGKERELVAAISGSGGRTYYADSVKGRFTISRDNAKNTVYLQMNSLKPEDTAVYYCNALPRPSYPFEYWGQGTQVTVSS” is “high polyreactivity”; for “QVQLVESGGGLVQAGGSLRLICAASGSTTFYAKGWYRPAPGKEWELVATISSSAGSTYYADSVKGRFTISRDNAKNNVYLEMNSLIPEDTAVFYCDAKYSQLRQYYRLDYWGQGTQVTVSS” it is “low polyreactivity”.
Consider “QVQLVESGGGLVQAGGSLRLICAASGSTYSVYAMVWYRQAPGKERELVATITWNGGRTYYADSVKGRFTISRDNAKNTVYLQMNSLKPEDTAVYYCAADGWTSIGGPDYQHDYWGQGTQVTVSS”, for which the “polyreactivity (PSR sort gate)” value is listed as “high polyreactivity”.
As to “QVQLVESGGGLVQAGGSLRLICAASGSTYYDYAMGWYRQAPGKERELVAGISRSGGSTYYADSVKGRFTISRDNAKNSVYLQMNSLKPEDTAVYYCAARNYRYLYRIEYWGQGTQVTVSS”, the “polyreactivity (PSR sort gate)” value is given as “high polyreactivity”.
Take “QVQLVESGGGLVQAGGSLRLICAASGTFTSNAMGWYRQAPGKERELVAVITSTDSTNYADSVKGRFTISRDNAKNTVYLPLNSLKPEDTAVYYCAGSKYTVVQQYWDVLFDYWGQGTQVTVSS”: the “polyreactivity (PSR sort gate)” value is reported as “low polyreactivity”.
“QVQLVESGGGLVQAGGSLRLICAASGYIFKHNAMGWYRQAPGKERELVAAISWSGVSTYYADSVTGRFTISRDNAKNTVYLQMNSLKPEDTAVYYCNAPAIAPIYDYWGQGTQVTVSS”: the “polyreactivity (PSR sort gate)” value is “low polyreactivity”.
As for “QVQLVESGGGLVQAGGSLRLICAASGYILWKAMGWYRQAPGKERELVAAIRFRVGSTSYADSVKGRFTISRDNAKNTVYLQMNSLKPVYTAVYYCTARWWVIRPYQRHDYWGQGTQVTVSS”, the “polyreactivity (PSR sort gate)” value is “low polyreactivity”.
The value for “QVQLVESGGGLVQAGGSLRLICAASGYTFEYNAMGWSRQAPGKEREFVATITASGDSTYYADSVKGRFTISRDNAKNTVYLQMNSLKPEDTAVYYCATEKRDVYFTAKYDYWGQGTQVTVSS” was “low polyreactivity”.

Values taken from the nanobody polyreactivity screen of Harvey et al. (2022).
